Measured values taken from the supplement of paper PMC7877785.
± gives the uncertainty stated by the source.

Assay: self-splicing fitness, log relative to wild type (ln ratio); higher = more splicing; Tetrahymena group I intron in knt gene, E. coli kanamycin selection, DiMSum; sequences stand for … in CUCUCU…GGAGGGAAAAGUUAUCAGGCAUGCACCUGGUAGCUAGUCUUUAAACCAAUAGAUUGCAUCGGUUUAAAAGGCAAGACCGUCAAAUUGCGGGAAAGGGGUCAACAGCCGUUCAGUACCAAGUCUCAGGGGAAACUUUGAGAUGGCCUUGCAAAGGGUAUGGUAAUAAGCUGACGGACAUGGUCCUAACCACGCAGCCAAGUCCUAAGUCAACAGAUCUUCUGUUGAUAUGGAUGCAGUUCACAGACUAAAUGUCGGUCGGGGAAGAUGUAUUCUUCUCAUAAGAUAUAGUCGGACCUCUCCUUAAUGGGAGCUAGCGGAUGAAGUGAUGCAACACUGGAGCCGCUGGGAACUAAUUUGUAUGCGAAAGUAUAUUGAUUAGUUUUGGAGUACUCGUGGUCG
Summary of the method: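 Library with all eight P1ex-region intron nucleotides randomised, intron inside the knt kanamycin-resistance gene on pET-22b(+), in E. coli BL21(DE3). Cells grew overnight at 37°C or 30°C on LB agar with or without 25 μg/mL kanamycin (plus 100 μg/mL carbenicillin, 50 μM IPTG, 0.2% rhamnose), in six replicate transformations. Pooled colonies were amplicon-sequenced on Illumina HiSeq 2500. DiMSum fitness is the error-weighted combination of wild-type-normalised replicate fold changes, kanamycin versus none.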

Row | Sequence | self-splicing fitness (ln) (30 °C) | self-splicing fitness (ln) (37 °C)
1 | AAAAAGCAAUAUUACGAACG | -0.0786 ± 0.076 | -0.303 ± 0.1
2 | AAAAAGCAAUAUUACGAAGC | – | -1.85 ± 0.22
3 | AAAAAGCAAUAUUACGACCG | -0.107 ± 0.13 | -0.00629 ± 0.17
4 | AAAAAGCAAUAUUACGACGC | -0.27 ± 0.086 | -0.264 ± 0.1
5 | AAAAAGCAAUAUUACGAGAA | -2.33 ± 0.33 | -0.686 ± 0.27
6 | AAAAAGCAAUAUUACGAGGA | -2.86 ± 0.16 | -2.21 ± 0.15
7 | AAAAAGCAAUAUUACGAUAG | -3.26 ± 0.17 | -1.11 ± 0.15
8 | AAAAAGCAAUAUUACGAUUG | -1.86 ± 0.093 | -1.67 ± 0.13
9 | AAAAAGCAAUAUUACGCAUG | -0.952 ± 0.066 | 0.04 ± 0.074
10 | AAAAAGCAAUAUUACGCCAG | -2.24 ± 0.14 | -2.24 ± 0.23
11 | AAAAAGCAAUAUUACGCGGA | -1.95 ± 0.11 | -0.504 ± 0.11
12 | AAAAAGCAAUAUUACGCGUG | -1.12 ± 0.064 | -1.18 ± 0.076
13 | AAAAAGCAAUAUUACGCGUU | -2.73 ± 0.11 | -1.44 ± 0.11
14 | AAAAAGCAAUAUUACGCUCC | -1.14 ± 0.13 | -0.319 ± 0.17
15 | AAAAAGCAAUAUUACGCUCU | -1.08 ± 0.081 | -0.167 ± 0.09
16 | AAAAAGCAAUAUUACGGAAU | -2.25 ± 0.11 | -1.36 ± 0.13
17 | AAAAAGCAAUAUUACGGCUG | -0.648 ± 0.085 | -0.345 ± 0.13
18 | AAAAAGCAAUAUUACGGGAG | -2.11 ± 0.11 | -1.04 ± 0.12
19 | AAAAAGCAAUAUUACGGGGU | -3.62 ± 0.16 | -2.32 ± 0.17
20 | AAAAAGCAAUAUUACGUAAA | -1.82 ± 0.086 | -1.19 ± 0.09
21 | AAAAAGCAAUAUUACGUAGA | -2.21 ± 0.062 | -1.33 ± 0.065
22 | AAAAAGCAAUAUUACGUAGC | -3.26 ± 0.15 | -1.64 ± 0.12
23 | AAAAAGCAAUAUUACGUGAC | -2.84 ± 0.14 | -2.31 ± 0.17
24 | AAAAAGCAAUAUUACGUGCG | -0.427 ± 0.052 | -0.846 ± 0.064
25 | AAAAAGCAAUAUUACGUGUU | -2.04 ± 0.055 | -1.22 ± 0.068

Row | Sequence | self-splicing fitness (ln) (30 °C) | self-splicing fitness (ln) (37 °C)
26 | AAACAGCAAUAUUACGAGAA | – | -1.95 ± 0.17
27 | AAACAGCAAUAUUACGAGAC | -3.96 ± 0.25 | -2.66 ± 0.25
28 | AAACAGCAAUAUUACGAGUA | -1.79 ± 0.1 | -1.68 ± 0.11
29 | AAACAGCAAUAUUACGAUAC | -2.44 ± 0.11 | -1.37 ± 0.14
30 | AAACAGCAAUAUUACGAUCU | -0.534 ± 0.063 | 0.138 ± 0.076
31 | AAACAGCAAUAUUACGCAAG | -2.56 ± 0.13 | -1.8 ± 0.14
32 | AAACAGCAAUAUUACGCACA | -0.828 ± 0.085 | 0.269 ± 0.1
33 | AAACAGCAAUAUUACGCAGC | -1.83 ± 0.14 | -1.98 ± 0.23
34 | AAACAGCAAUAUUACGCGGC | -3.54 ± 0.12 | -2.7 ± 0.12
35 | AAACAGCAAUAUUACGCGUG | -1.42 ± 0.052 | -0.0443 ± 0.066
36 | AAACAGCAAUAUUACGCUAG | -1.39 ± 0.095 | -1.12 ± 0.13
37 | AAACAGCAAUAUUACGCUGG | -2.53 ± 0.12 | -2.62 ± 0.2
38 | AAACAGCAAUAUUACGGAAA | -3.16 ± 0.18 | -1.8 ± 0.13
39 | AAACAGCAAUAUUACGGCAC | -1.72 ± 0.083 | -0.057 ± 0.1
40 | AAACAGCAAUAUUACGGCAG | -2.08 ± 0.099 | -0.063 ± 0.1
41 | AAACAGCAAUAUUACGGCCA | -1.41 ± 0.11 | -0.0737 ± 0.12
42 | AAACAGCAAUAUUACGGGCU | -3.15 ± 0.12 | -1.95 ± 0.13
43 | AAACAGCAAUAUUACGGUAA | -2.28 ± 0.1 | -0.892 ± 0.083
44 | AAACAGCAAUAUUACGGUCC | -2.09 ± 0.12 | -0.775 ± 0.11
45 | AAACAGCAAUAUUACGUCAU | -3.39 ± 0.12 | -1.55 ± 0.085
46 | AAACAGCAAUAUUACGUCCA | -1.19 ± 0.065 | -0.777 ± 0.073
47 | AAACAGCAAUAUUACGUCUA | -1.21 ± 0.065 | -0.311 ± 0.07
48 | AAACAGCAAUAUUACGUCUC | -3.42 ± 0.15 | -2.31 ± 0.16
49 | AAACAGCAAUAUUACGUGUA | -2.6 ± 0.1 | -1.41 ± 0.089
50 | AAACAGCAAUAUUACGUGUU | -4.29 ± 0.15 | -2.24 ± 0.11

Row | Sequence | self-splicing fitness (ln) (30 °C) | self-splicing fitness (ln) (37 °C)
51 | AAACAGCAAUAUUACGUUUA | -2.11 ± 0.1 | -0.623 ± 0.078
52 | AAACAGCAAUAUUACGUUUG | -2.49 ± 0.1 | -1.51 ± 0.099
53 | AAAGAGCAAUAUUACGAAAU | -2.67 ± 0.23 | -2.4 ± 0.24
54 | AAAGAGCAAUAUUACGACUC | -1.4 ± 0.071 | -0.537 ± 0.1
55 | AAAGAGCAAUAUUACGAGAA | -2.11 ± 0.46 | –
56 | AAAGAGCAAUAUUACGAUCA | -3.02 ± 0.21 | -1.68 ± 0.14
57 | AAAGAGCAAUAUUACGCAAC | -2.78 ± 0.26 | -1.77 ± 0.42
58 | AAAGAGCAAUAUUACGCCAG | -3.87 ± 0.35 | -0.837 ± 0.21
59 | AAAGAGCAAUAUUACGCCAU | -3.65 ± 0.22 | -2.55 ± 0.29
60 | AAAGAGCAAUAUUACGCCUU | -3.49 ± 0.29 | -1.81 ± 0.23
61 | AAAGAGCAAUAUUACGCGCU | -2.96 ± 0.4 | –
62 | AAAGAGCAAUAUUACGCUAU | – | -2.46 ± 0.21
63 | AAAGAGCAAUAUUACGGAAC | – | -2.8 ± 0.44
64 | AAAGAGCAAUAUUACGGAGU | -3.33 ± 0.2 | -3.16 ± 0.26
65 | AAAGAGCAAUAUUACGGCAU | -1.83 ± 0.087 | -0.726 ± 0.097
66 | AAAGAGCAAUAUUACGGCGU | -1.87 ± 0.098 | 0.269 ± 0.094
67 | AAAGAGCAAUAUUACGGUCC | -3.16 ± 0.44 | -0.864 ± 0.38
68 | AAAGAGCAAUAUUACGUAGU | -2.39 ± 0.16 | -2.46 ± 0.22
69 | AAAGAGCAAUAUUACGUAUU | -3.03 ± 0.2 | -1.2 ± 0.14
70 | AAAGAGCAAUAUUACGUCGA | -3.5 ± 0.27 | -2.09 ± 0.18
71 | AAAGAGCAAUAUUACGUCGU | -3.75 ± 0.26 | -2.62 ± 0.17
72 | AAAGAGCAAUAUUACGUGCU | -3.28 ± 0.22 | -2.82 ± 0.25
73 | AAAGAGCAAUAUUACGUUAC | -2.94 ± 0.31 | –
74 | AAAUAGCAAUAUUACGAAAC | -3.4 ± 0.27 | -1.76 ± 0.18
75 | AAAUAGCAAUAUUACGAAAU | -3.02 ± 0.15 | -1.2 ± 0.13

Row | Sequence | self-splicing fitness (ln) (30 °C) | self-splicing fitness (ln) (37 °C)
76 | AAAUAGCAAUAUUACGAAUG | -1.37 ± 0.12 | -1.62 ± 0.16
77 | AAAUAGCAAUAUUACGACAA | -0.727 ± 0.1 | -0.284 ± 0.1
78 | AAAUAGCAAUAUUACGAGAG | -4.01 ± 0.3 | -2.49 ± 0.28
79 | AAAUAGCAAUAUUACGAGAU | -2.1 ± 0.16 | -1.47 ± 0.21
80 | AAAUAGCAAUAUUACGAGGG | -3.73 ± 0.19 | -3.61 ± 0.22
81 | AAAUAGCAAUAUUACGAGGU | -2.99 ± 0.26 | -1.28 ± 0.19
82 | AAAUAGCAAUAUUACGAUCC | -0.358 ± 0.14 | -0.695 ± 0.17
83 | AAAUAGCAAUAUUACGAUCG | -0.864 ± 0.091 | -0.18 ± 0.11
84 | AAAUAGCAAUAUUACGAUGA | -0.773 ± 0.096 | -0.0131 ± 0.11
85 | AAAUAGCAAUAUUACGCCCU | 0.528 ± 0.16 | 0.336 ± 0.21
86 | AAAUAGCAAUAUUACGCGCC | -0.57 ± 0.13 | -0.337 ± 0.15
87 | AAAUAGCAAUAUUACGCUAU | -2.9 ± 0.18 | -2.22 ± 0.34
88 | AAAUAGCAAUAUUACGCUUU | -2.63 ± 0.15 | -1.09 ± 0.12
89 | AAAUAGCAAUAUUACGGACA | -1.08 ± 0.12 | -0.512 ± 0.13
90 | AAAUAGCAAUAUUACGGCUA | -0.705 ± 0.12 | -0.0895 ± 0.13
91 | AAAUAGCAAUAUUACGGGCA | -1.22 ± 0.11 | -0.312 ± 0.14
92 | AAAUAGCAAUAUUACGGGGG | -2.94 ± 0.36 | -2.11 ± 0.31
93 | AAAUAGCAAUAUUACGGGUC | -3.56 ± 0.17 | -3.1 ± 0.24
94 | AAAUAGCAAUAUUACGGGUU | -1.92 ± 0.14 | -0.924 ± 0.2
95 | AAAUAGCAAUAUUACGGUAU | -1.69 ± 0.1 | -0.496 ± 0.12
96 | AAAUAGCAAUAUUACGGUCU | 0.108 ± 0.076 | -0.388 ± 0.084
97 | AAAUAGCAAUAUUACGUAAC | -2.1 ± 0.2 | -0.398 ± 0.2
